# From the RNAGym collection of RNA variant scans (doi:10.7554/elife.80360)
# B1: HDV Ribozyme (parent)
# chain: GGCCGGCAUGGUCCCAGCCUCCUCGCUGGCGCCGGCUGGGCAACAUUCCGAGGGGACCGUCCCCUCGGUAAUGGCGAAUGGGACCCA
# Variants of: B1
# Test: self-cleavage, relative activity (ratio to wild type); higher = more cleavage; co-transcriptional
row,Variant,self-cleavage
1,C58G A77C,0.361
2,C58G A77U,0.388
3,A56C C86U,1.03
4,G54C C86G,1.02
5,G54C C86A,0.962
6,A56U U69G,0.959
7,G53U U65C,0.819
8,G55U C66G,0.901
9,G55U A78C,0.18
10,C57G G81U,0.388
11,G54C U72G,0.431
12,G55U G80A,0.477
13,G55A C62A,1.01
14,G55A C62U,1.03
15,G54C C58A,0.923
16,A56C G82C,0.306
17,G53U G68A,0.903
18,G55C C57A,1.06
19,G55U C64G,0.781
20,G55A A77C,0.302
21,G54A G68C,0.173
22,C57A A87C,1.05
23,C57A A87U,1.13
24,G55A C84U,0.741

row,Variant,self-cleavage
1,G54A G80A,0.443
2,C57G C64U,1.05
3,C57G C64A,1.04
4,C57G C64G,0.849
5,C57U A83U,0.475
6,C57U U65A,0.917
7,C57U U65G,0.919
8,C58G C61G,0.88
9,C58G C61U,0.851
10,G54U G80U,0.203
11,G54U G80A,0.257
12,C57A G76U,1.16
13,A56U C75G,0.151
14,A56U C75A,0.0875
15,A56U G82U,0.462
16,A56U G82A,0.543
17,C57A U69A,0.969
18,C57A U69C,0.892
19,C57U C66G,1.07
20,C57U C66A,0.878
21,C57A G67A,0.926
22,G54U C61U,0.895
23,G54C A78U,0.324
24,G54C A78C,0.191

row,Variant,self-cleavage
1,G54C A78G,0.507
2,C58A G76A,1.02
3,G55A C85U,0.885
4,G55A C85A,1.02
5,G55A G82U,0.241
6,G53U U60A,0.997
7,G55A G59C,1.06
8,G55U G74U,0.707
9,G55U G74C,0.208
10,C57A U65A,1.09
11,G55C C58U,1.07
12,G55C C58A,1.15
13,G55U A56U,0.797
14,C57A U79G,0.831
15,G55A C63U,0.913
16,G55A A71G,1.1
17,G55A A71U,0.652
18,G55A A71C,0.978
19,C57U G80C,0.145
20,G54A A77C,0.383
21,G54U C86G,1.01
22,G54U C86U,0.882
23,G54U C86A,0.799
24,A56C A87U,0.986

row,Variant,self-cleavage
1,A56U G81C,0.312
2,A56U G81U,0.381
3,C58A U79C,0.554
4,G54C A83U,0.631
5,A56C A77G,1.02
6,C57G C62A,0.957
7,A56G C75U,0.17
8,A56G C86G,1.17
9,C57A G74U,0.356
10,G55A G81U,0.34
11,A56G U69G,0.831
12,A56C C66U,0.861
13,A56C C66G,0.99
14,A56G G73C,0.38
15,A56G G73U,0.249
16,C57A C61G,1.05
17,G55C G67A,1.08
18,G54U G59U,1.14
19,G54U G59A,1
20,G54U U79C,0.513
21,G54U U79A,0.982
22,G55C C86U,1.12
23,G55C C86G,1.09
24,G55C G82A,0.447

row,Variant,self-cleavage
1,G55U C75A,0.153
2,C58A U65G,1.05
3,A56U C61U,0.755
4,G55C U79G,0.802
5,A56G C61U,1.08
6,A56U A70C,0.811
7,A56U A70G,1.07
8,G54A A83G,0.692
9,G54A A83C,0.277
10,G54A A83U,0.509
11,C57G G80U,0.25
12,G55A U72G,0.415
13,G55A U72C,1
14,C57U G82C,0.208
15,C57U G82A,0.269
16,G55U A83C,0.554
17,G55C A77C,0.495
18,G55C A77G,1.1
19,C57G,1.02
20,C57A,1.05
21,C57U,0.993
22,C58A C66G,1.25
23,G55U U79A,0.635
24,A56U A77U,0.623

row,Variant,self-cleavage
1,A56C A78G,0.706
2,A56U C57A,0.966
3,A56U C57U,0.886
4,A56U C57G,1.08
5,C57G G67A,0.909
6,A56U C63A,0.969
7,C58A C86U,1.1
8,C57G C63U,1.12
9,C57G C63G,1.09
10,G55A A56C,0.895
11,G54C A87C,1.02
12,A56U G59A,0.926
13,G55U C58A,0.843
14,A56G G67A,1.09
15,G54A U60G,1.03
16,A56U C66G,0.997
17,A56U C66A,1.03
18,A56U U72G,0.734
19,A56G G80U,0.165
20,C57A G80U,0.253
21,C57A G80A,0.218
22,G55C A56U,1.01
23,G55C A56C,0.969
24,G53U G80U,0.256

row,Variant,self-cleavage
1,G53U G80A,0.419
2,G53U G80C,0.304
3,C58A A78U,0.424
4,A56U U65C,1.04
5,A56U U65G,0.928
6,C57A U72C,0.856
7,A56C C62A,0.935
8,G55C C62U,0.946
9,C57U C63G,1.12
10,C57U C63U,0.958
11,G55C G73C,0.479
12,G54A U72G,0.453
13,G54A U72C,0.61
14,G54A A87C,1.06
15,G54U U69C,1.16
16,A56G A83U,0.684
17,A56G A83G,0.831
18,A56G A87U,0.897
19,A56G A87G,0.929
20,G55U G59U,1.02
21,A56G G74C,0.125
22,A56U G67A,1.17
23,C58G C63U,1.04
24,A56G C84G,0.598

row,Variant,self-cleavage
1,G54U G55U,0.921
2,C58A G59U,0.89
3,A56U C58G,1.08
4,A56U C58A,1.16
5,C57U G59U,1.2
6,C57U C61U,0.843
7,C57G G68A,1.18
8,A56G G59U,1.06
9,C57U A87C,1.17
10,C57U A87G,0.979
11,C57A A83U,0.554
12,C57U C58U,1.3
13,G54C G73C,0.502
14,C58A A87G,1.11
15,C58A A87U,1
16,C58A A87C,1.09
17,G54A C85U,0.808
18,G54A C85A,0.917
19,C58G G59A,1.1
20,C57A C58U,1.05
21,C57A C58G,1.14
22,G54C G59C,1.21
23,G55C G81U,0.256
24,G55C C84A,1.07

row,Variant,self-cleavage
1,G55A C61G,1.06
2,G55A C61A,0.956
3,G54A G67U,0.657
4,C57G U79C,0.598
5,C57G U79A,0.802
6,G54C G68C,0.346
7,G54A G59C,1.07
8,G54A G59A,1.01
9,G55A G68C,0.777
10,G55C C61A,1.06
11,C58G A87C,0.919
12,A56G U60G,0.831
13,A56C G80U,0.253
14,C57G U60C,1.07
15,C57G U60A,0.987
16,G54U C63U,0.892
17,G55C G68C,0.752
18,G54C C84U,0.665
19,G54C C57U,0.997
20,G54C G76A,1.1
21,A56U G76C,1.14
22,A56U G76U,0.95
23,G55U U72C,0.703
24,C57A C85A,1.05

row,Variant,self-cleavage
1,C57A C85G,0.748
2,G55U C61G,1.11
3,C58G A70C,0.712
4,C58A G68A,0.95
5,C58A A83U,0.554
6,G54A C58A,0.773
7,G54A C58U,1.22
8,C58A C75G,0.116
9,C57A A70U,1.25
10,G54U A70C,0.515
11,G53U G81A,0.445
12,C57A C62A,0.997
13,A56C A70C,1.12
14,A56C A70G,1.05
15,A56C A70U,1.16
16,G55U C62A,0.973
17,G55U C62U,0.925
18,C57G C61G,1.08
19,G55C U65G,1.06
20,A56C G73A,0.658
21,A56C G73U,0.521
22,G55C U60C,1.07
23,G54C G55A,1.08
24,A56C C61U,0.942

row,Variant,self-cleavage
1,G55U G68A,1.03
2,C58A G73A,0.787
3,G54U C62A,0.99
4,G53U G76A,1.09
5,G55A A83C,0.731
6,A56U A83C,0.499
7,A56U A83U,0.318
8,C57A C84G,0.727
9,C57A C84A,0.789
10,G53U G82C,0.381
11,A56C C64G,0.831
12,G55A C86U,0.989
13,G55C A71G,0.912
14,G55A G74U,0.541
15,C57G A70G,0.856
16,G54C G82A,0.226
17,G54C G82U,0.448
18,G55U G81A,0.287
19,G55A C57U,0.925
20,C58G C66A,1.15
21,C58G C66G,0.95
22,G54A C57G,0.903
23,A56C C58G,1.26
24,G55C C63A,1.06

row,Variant,self-cleavage
1,C57U U69A,1.15
2,C57U U69C,0.831
3,A56G A77C,0.199
4,C58A G67U,0.946
5,C58A G67C,0.886
6,C57U G81U,0.353
7,C57A A78G,0.63
8,G54C A56G,0.808
9,G55U C57G,0.997
10,G54U A56U,0.953
11,G54U A77G,0.878
12,G54U A77U,0.688
13,G55A C64U,1.04
14,A56C A71U,1.11
15,A56C A71C,0.997
16,C58A A70G,0.807
17,C58A A70C,1.04
18,G54C C62A,0.967
19,C58A U60A,1.09
20,G55A U69A,0.857
21,C57G A78C,0.0959
22,G55A U60C,0.9
23,C57U C75U,0.188
24,A56G G76C,1.16

row,Variant,self-cleavage
1,C57U C62A,0.941
2,G55C G80C,0.388
3,C57G U72G,0.733
4,C57A G82U,0.585
5,C57U G67U,0.974
6,C58A G81A,0.514
7,C57U A70U,1.05
8,G54A A70U,0.843
9,A56G U72A,0.643
10,A56G U72C,0.782
11,G54A C63A,0.831
12,C57A A71U,0.929
13,C58G C64U,1.08
14,C58G C86A,0.727
15,A56G C66A,0.909
16,A56G C66U,0.937
17,G54C U60G,0.895
18,A56U G73C,0.698
19,A56U G73U,0.415
20,A56U G73A,0.752
21,C57A C66G,0.985
22,C57G G73U,0.464
23,A56C U72A,0.95
24,A56C C63G,0.608

row,Variant,self-cleavage
1,C57G C85U,0.849
2,C57G A71C,0.852
3,G54U C66U,0.914
4,A56C U65G,0.985
5,C57U U79C,0.237
6,A56G C63U,0.682
7,A56G C63G,0.59
8,G55U G67C,1.06
9,A56G U65C,1.05
10,G54U C84A,0.724
11,G54U C84G,0.529
12,G54U C84U,0.808
13,G55A U79C,0.511
14,C58G C75G,0.415
15,G54U C75G,0.114
16,C58A G80A,0.544
17,C57G C84G,0.831
18,A56G U79C,0.242
19,A56G U79A,0.277
20,C58A C63U,1.02
21,C58A U69C,1.17
22,G54C C64G,0.787
